Test results from patent publication US20110313018.

T1: GST-LGN/GPSM2 wild type, full-length recombinant (pGEX 6P-2-LGN/GPSM2, E. coli)
T1 chain: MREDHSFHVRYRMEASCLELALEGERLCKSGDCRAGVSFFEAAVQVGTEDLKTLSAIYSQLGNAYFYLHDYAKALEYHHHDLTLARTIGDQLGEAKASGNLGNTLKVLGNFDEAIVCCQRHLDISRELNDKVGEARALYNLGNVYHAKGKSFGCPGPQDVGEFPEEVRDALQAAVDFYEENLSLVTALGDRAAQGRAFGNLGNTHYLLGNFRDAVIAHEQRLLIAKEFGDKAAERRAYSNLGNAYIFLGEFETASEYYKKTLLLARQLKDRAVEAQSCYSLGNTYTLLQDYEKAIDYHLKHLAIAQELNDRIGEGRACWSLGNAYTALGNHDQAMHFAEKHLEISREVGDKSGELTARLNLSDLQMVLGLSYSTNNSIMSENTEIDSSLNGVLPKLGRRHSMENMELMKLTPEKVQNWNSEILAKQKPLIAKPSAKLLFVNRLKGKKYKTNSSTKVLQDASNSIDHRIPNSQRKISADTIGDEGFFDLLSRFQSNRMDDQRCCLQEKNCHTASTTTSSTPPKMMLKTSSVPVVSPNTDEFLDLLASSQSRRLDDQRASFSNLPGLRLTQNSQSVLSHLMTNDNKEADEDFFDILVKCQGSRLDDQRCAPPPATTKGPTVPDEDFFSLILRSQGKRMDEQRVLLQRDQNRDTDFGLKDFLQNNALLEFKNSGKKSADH

T2: His-tagged full-length recombinant LGN/GPSM2 (pET28a-LGN/GPSM2, E. coli)
T2 chain: T1 chain

B1: recombinant Aurora kinase A (SignalChem) (protein)
chain: MDRSKENCISGPVKATAPVGGPKRVLVTQQFPCQNPLPVNSGQAQRVLCPSNSSQRIPLQAQKLVSSHKPVQNQKQKQLQATSVPHPVSRPLNNTQKSKQPLPSAPENNPEEELASKQKNEESKKRQWALEDFEIGRPLGKGKFGNVYLAREKQSKFILALKVLFKAQLEKAGVEHQLRREVEIQSHLRHPNILRLYGYFHDATRVYLILEYAPLGTVYRELQKLSKFDEQRTATYITELANALSYCHSKRVIHRDIKPENLLLGSAGELKIADFGWSVHAPSSRRTTLCGTLDYLPPEMIEGRMHDEKVDLWSLGVLCYEFLVGKPPFEANTYQETYKRISRVEFTFPDFVTEGARDLISRLLKHNPSQRPMLREVLEHPWITANSSKPSNCQNKESASKQS
B2: recombinant full-length PBK/TOPK (Invitrogen) (protein)
chain: MEGISNFKTPSKLSEKKKSVLCSTPTINIPASPIMQKLGFGTGVNVYLMKRSPRGLSHSPWAVKKINPICNDHYRSVYQKRLMDEAKILKSLHHPNIVGYRAFTEASDGSLCLAMEYGGEKSLNDLIEERYKASQDPFPAAIILKVALNMARGLKYLHQEKKLLHGDIKSSNVVIKGDFETIKICDVGVSLPLDENMTVTDPEACYIGTEPWKPKEAVEENGVITDKADIFAFGLTLWEMMTLSIPHINLSNDDDDEDKTFDESDFDDEAYYAALGTRPPINMEELDESYQKVIELFSVCTNEDPKDRPSAAHIVEALETDV
B3: recombinant Aurora kinase B (SignalChem) (protein)
chain: MAQKENSYPWPYGRQTAPSGLSTLPQRVLRKEPVTPSALVLMSRSNVQPTAAPGQKVMENSSGTPDILTRHFTIDDFEIGRPLGKGKFGNVYLAREKKSHFIVALKVLFKSQIEKEGVEHQLRREIEIQAHLHHPNILRLYNYFYDRRRIYLILEYAPRGELYKELQKSCTFDEQRTATIMEELADALMYCHGKKVIHRDIKPENLLLGLKGELKIADFGWSVHAPSLRRKTMCGTLDYLPPEMIEGRMHNEKVDLWCIGVLCYELLVGNPPFESASHNETYRRIVKVDLKFPASVPMGAQDLISKLLRHNPSERLPLAQVSAHPWVRANSRRVLPPSALQSVA

Experiments:
[1] = target: T1, GST-LGN/GPSM2 wild type, full-length …
[2] = target: T2, His-tagged full-length recombinant …

Protein	in vitro kinase assay (autoradiography, [gamma-32P]-ATP) [1]	in vitro kinase assay (autoradiography, [gamma-32P]-ATP) (GST-LGN/GPSM2 S401A)	in vitro kinase assay (western blot with anti-phosphorylated threonine antibody) [2]	in vitro kinase assay with GST-LGN/GPSM2 WT and alanine substitutes (autoradiography) [1]
B1	the phosphorylation of GST-LGN/GPSM2 by both Aurora kinase A and B	Substitution of serine 401 to alanine distinguished the phosphorylation of GST-LGN/GPSM2 by both Aurora kinase A and B		
B2	The autoradiography images also showed phosphorylation of the LGN/GPSM2 protein by PBK/TOPK (FIG. 8C)		found phosphorylation of the LGN/GPSM2 protein by PBK/TOPK in vitro (FIG. 8B)	PBK/TOPK, which was has been shown to phosphorylate LGN/GPSM2 in FIG. 8, did not phosphorylate these amino acids identified here (FIG. 10C)
B3	the phosphorylation of GST-LGN/GPSM2 by both Aurora kinase A and B	Substitution of serine 401 to alanine distinguished the phosphorylation of GST-LGN/GPSM2 by both Aurora kinase A and B		
